Molecular target: West Nile virus strain USA99b (strain 385-99), whole virus (West Nile virus strain 385-99 (USA99b))
Test: ELISA on irradiated WNV; antibody at 20.000 µg/ml

Substance: anti-rabies virus antibody (negative control)
- OD 492nm: 0.051 OD 492nm

Reference: patent EP1828247B1
